Sequences and labels used below:
B4: Strep-REC114 (full-length mouse REC114 with a single N-terminal Strep-tag) (natural protein, UniProt Q9CWH4 1-259, looked up)
chain: MSEAGNVASGLGLPGEVSQWSLKRYGRFMLLDNVGSPGPSSEAAAAGSPTWKVFESSEESGSLVLTIVVSGHFFISQGQTLLEGFSLIGSKNWLKIVRRMDCLLFGTTIKNKSRMFRVQFSGESKEEALERCCGCVQTLAQYVTVQEPDSTTQELQQSQGPREAGESQGKDPLQQGPSLTLEQHVCMAAGAGVLQERTSVTHRAQSILAPEKLTLAYEGSSWGTEELGPFLRLCLMDQNFPAFVEEVEKELKKITGLRN

Read-outs that look alike come from different tables or passages of the source.

Data set [1] deals with REC114 226-254-MEI4 1-43 minimal complex (mouse) (UniProt Q9CWH4). Briefly: AUC.
For data set [2] the target is unchanged. Kind of data set: AUC. This is another data set of the same source.
In data set [3] the target is Strep-REC114-His-MEI4 1-127 complex (mouse) (UniProt Q9CWH4). Kind of data set: SEC-MALS. In general terms: In gel filtration, larger molecules generally elute earlier.
For data set [4] the target is unchanged. Kind of data set: native MS.
Data set [5] deals with the molecule itself. Kind of data set: SEC-MALS.
For data set [6], the target named is Strep-REC114-His-MEI4 1-127 complex (mouse) (UniProt Q9CWH4). Briefly: ITC. In general terms: Isothermal titration calorimetry measures the heat released or taken up as one component is titrated into another.
Data set [7] concerns the molecule itself. Kind of data set: SEC-MALS. The source holds these as a separate data set.
The target of data set [8] is B4. Kind of data set: SEC.
Data set [9] deals with T1, MEI4 1-43 (untagged) (mouse, UniProt Q8BRM6 1-43).
T1 chain (looked up): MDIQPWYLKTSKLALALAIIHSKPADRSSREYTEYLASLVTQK
Kind of data set: AUC.

Data set [10] addresses T2, His-Sumo-IHO1 1-281 (mouse, UniProt Q6PDM4 1-281).
T2 sequence (looked up): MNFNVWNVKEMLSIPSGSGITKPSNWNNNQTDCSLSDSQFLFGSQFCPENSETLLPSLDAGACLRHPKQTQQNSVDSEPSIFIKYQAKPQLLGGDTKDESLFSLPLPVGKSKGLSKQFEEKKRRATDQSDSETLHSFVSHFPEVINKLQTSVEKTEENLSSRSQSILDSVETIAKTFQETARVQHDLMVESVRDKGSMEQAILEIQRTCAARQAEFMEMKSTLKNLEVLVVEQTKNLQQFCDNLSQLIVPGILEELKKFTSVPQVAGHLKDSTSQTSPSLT
Briefly: SEC.

Data set [11] addresses T3, His-MBP-IHO1 1-281 (mouse, UniProt Q6PDM4 1-281).
T3 sequence (looked up): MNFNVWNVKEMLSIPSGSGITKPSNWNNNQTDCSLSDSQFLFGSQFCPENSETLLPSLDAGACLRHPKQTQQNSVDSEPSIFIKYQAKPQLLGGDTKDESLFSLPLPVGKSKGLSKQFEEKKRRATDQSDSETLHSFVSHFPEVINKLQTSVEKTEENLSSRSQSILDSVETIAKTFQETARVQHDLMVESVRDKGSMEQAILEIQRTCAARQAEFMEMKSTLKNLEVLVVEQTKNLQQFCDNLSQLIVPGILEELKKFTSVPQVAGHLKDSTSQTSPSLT
Briefly: SEC.

Data set [12] concerns the target T4, His-MEI4 1-127 (mouse, UniProt Q8BRM6 1-127).
T4 sequence (looked up): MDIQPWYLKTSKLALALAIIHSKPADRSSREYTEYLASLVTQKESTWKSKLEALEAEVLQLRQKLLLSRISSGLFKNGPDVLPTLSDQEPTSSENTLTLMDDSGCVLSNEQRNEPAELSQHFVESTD
Kind of data set: native MS.

Data set [13] deals with T4, His-MEI4 1-127. Kind of data set: SEC-MALS.
Data set [14] concerns the molecule itself. Kind of data set: SEC-MALS. The source holds these as a separate data set.
For data set [15], the target named is T5, Strep-REC114 1-159 (PH domain) (mouse, UniProt Q9CWH4 1-159).
T5 sequence (looked up): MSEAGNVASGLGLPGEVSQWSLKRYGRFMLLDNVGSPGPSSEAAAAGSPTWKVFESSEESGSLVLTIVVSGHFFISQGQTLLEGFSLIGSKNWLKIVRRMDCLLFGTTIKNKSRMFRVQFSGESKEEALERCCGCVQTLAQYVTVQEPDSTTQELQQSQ
Briefly: ITC.

Data set [16] has as its target B4. Kind of data set: pull-down.

In general, stoichiometry N refers to the number of molecules, sites or subunits per partner or assembly. Take “REC114 226-254-MEI4 1-43 minimal complex (from UniProt Q9CWH4 226-254; Q8BRM6 1-43)”: the stoichiometry N in [1] and in [2] was 2 each time.

“Strep-REC114-His-MEI4 1-127 complex (from UniProt Q9CWH4 1-259; Q8BRM6 1-127)”: the stoichiometry N in [3] and in data set [4] was 2 each time.

B1: IHO1 1-281 (domain or fragment, mouse, UniProt Q6PDM4 1-281, looked up)
chain: MNFNVWNVKEMLSIPSGSGITKPSNWNNNQTDCSLSDSQFLFGSQFCPENSETLLPSLDAGACLRHPKQTQQNSVDSEPSIFIKYQAKPQLLGGDTKDESLFSLPLPVGKSKGLSKQFEEKKRRATDQSDSETLHSFVSHFPEVINKLQTSVEKTEENLSSRSQSILDSVETIAKTFQETARVQHDLMVESVRDKGSMEQAILEIQRTCAARQAEFMEMKSTLKNLEVLVVEQTKNLQQFCDNLSQLIVPGILEELKKFTSVPQVAGHLKDSTSQTSPSLT
The Kd is the free concentration of one partner at which half of the binding sites on the other are occupied at equilibrium, for simple one-to-one binding. Low values mean higher affinity, high ones lower affinity. As to B1, in data set [5], the “stoichiometry N” value is 4. In [6], this molecule came in with a dissociation constant (Kd) of 26.9 µM.

For ELGPFLRLCLMDQNFPAFVEEVEKELKKI (domain or fragment, mouse, UniProt Q9CWH4 226-254, looked up) [His-MBP-REC114 226-254], the “stoichiometry N” value in data set [7] came out at 2.

B2: TOPOVIBL 452-579 (domain or fragment, mouse, UniProt J3QMY9 452-579, looked up)
chain: SCDTEQHLTPEKNISAQNTKDQHKNIAQEFPEESIGQAENKRPKRGSPNHGREESRVLGSARDRSPPKSATRDRELTEVSLTARGSQTQAAHGRAQAAEAASPAGGLEDLWLQEVSNLSEWLNPGHRS
Regarding B2, the binding result in [8] was “binds”.

Turning to ELGPFLRLCLMDQNFPAFVEEVEKELKKI (domain or fragment, mouse, UniProt Q9CWH4 226-254, looked up) [REC114 226-254 (untagged)], in [9], the “stoichiometry N” value was 2.

In the case of GSMEQAILEIQRTCAARQAEFMEMKSTLKNLEVLVVEQTKNLQQFCDNLS (domain or fragment, mouse, UniProt Q6PDM4 196-245, looked up) [IHO1 196-245], the “stoichiometry N” value in [5] is 4.

B3: IHO1 125-281 (domain or fragment, mouse, UniProt Q6PDM4 125-281, looked up)
chain: ATDQSDSETLHSFVSHFPEVINKLQTSVEKTEENLSSRSQSILDSVETIAKTFQETARVQHDLMVESVRDKGSMEQAILEIQRTCAARQAEFMEMKSTLKNLEVLVVEQTKNLQQFCDNLSQLIVPGILEELKKFTSVPQVAGHLKDSTSQTSPSLT
In the case of B3, the “stoichiometry N” value in data set [5] stood at 4.

Regarding B4, the binding result in [10], in [11] and in data set [14] was “binds” throughout. The “stoichiometry N” value in [12] stood at 1; in data set [13] it was 2.

B5: IHO1 125-261 (domain or fragment, mouse, UniProt Q6PDM4 125-261, looked up)
chain: ATDQSDSETLHSFVSHFPEVINKLQTSVEKTEENLSSRSQSILDSVETIAKTFQETARVQHDLMVESVRDKGSMEQAILEIQRTCAARQAEFMEMKSTLKNLEVLVVEQTKNLQQFCDNLSQLIVPGILEELKKFTS
Consider B5, for which the “stoichiometry N” value in data set [5] is 4.

B6: MBP-IHO1 125-261 (MBP joined by a five-residue linker) (domain or fragment, mouse, UniProt Q6PDM4 125-261, looked up)
chain: ATDQSDSETLHSFVSHFPEVINKLQTSVEKTEENLSSRSQSILDSVETIAKTFQETARVQHDLMVESVRDKGSMEQAILEIQRTCAARQAEFMEMKSTLKNLEVLVVEQTKNLQQFCDNLSQLIVPGILEELKKFTS
B6: the “stoichiometry N” value in data set [5] was found to be 4.

On to MNFNVWNVKEMLSIPSGSGITKP (domain or fragment, mouse, UniProt Q6PDM4 1-23, looked up) [His-MBP-IHO1 1-23], for which the dissociation constant Kd worked out at 30.4 µM in data set [15] and 31.9 µM in data set [6].

Take MDIQPWYLKTSKLALALAIIHSKPADRSSREYTEYLASLVTQK (domain or fragment, mouse, UniProt Q8BRM6 1-43, looked up) [His-MBP-MEI4 1-43]: the binding result in [16] is “binds”.

Turning to WGTEEDGPFLRLCLMDQNFPAFVEEVEKELKKITG (domain or fragment, mouse, UniProt Q9CWH4 222-256, looked up) [His-MBP-REC114 222-256 L227D], the binding result in data set [7] is on record as “binds”.

For the origin of these results see paper PMC10425845 (The EMBO Journal, 2023).
